Source: paper doi:10.1101/779520
Where two headings read alike, the source gives them in different places. Blank lines part the entries; values can stand above or below the molecule they belong to.

How the values were obtained:
[1] = target: otoferlin (mouse (endogenous in inner hair cells)); experiment: proximity ligation
[2] = target: otoferlin (mouse (endogenous in inner hair cells)); experiment: proximity ligation; remark: listed apart in the source

Chain of otoferlin (mouse (endogenous in inner hair cells)) (Q9ESF1 whole entry): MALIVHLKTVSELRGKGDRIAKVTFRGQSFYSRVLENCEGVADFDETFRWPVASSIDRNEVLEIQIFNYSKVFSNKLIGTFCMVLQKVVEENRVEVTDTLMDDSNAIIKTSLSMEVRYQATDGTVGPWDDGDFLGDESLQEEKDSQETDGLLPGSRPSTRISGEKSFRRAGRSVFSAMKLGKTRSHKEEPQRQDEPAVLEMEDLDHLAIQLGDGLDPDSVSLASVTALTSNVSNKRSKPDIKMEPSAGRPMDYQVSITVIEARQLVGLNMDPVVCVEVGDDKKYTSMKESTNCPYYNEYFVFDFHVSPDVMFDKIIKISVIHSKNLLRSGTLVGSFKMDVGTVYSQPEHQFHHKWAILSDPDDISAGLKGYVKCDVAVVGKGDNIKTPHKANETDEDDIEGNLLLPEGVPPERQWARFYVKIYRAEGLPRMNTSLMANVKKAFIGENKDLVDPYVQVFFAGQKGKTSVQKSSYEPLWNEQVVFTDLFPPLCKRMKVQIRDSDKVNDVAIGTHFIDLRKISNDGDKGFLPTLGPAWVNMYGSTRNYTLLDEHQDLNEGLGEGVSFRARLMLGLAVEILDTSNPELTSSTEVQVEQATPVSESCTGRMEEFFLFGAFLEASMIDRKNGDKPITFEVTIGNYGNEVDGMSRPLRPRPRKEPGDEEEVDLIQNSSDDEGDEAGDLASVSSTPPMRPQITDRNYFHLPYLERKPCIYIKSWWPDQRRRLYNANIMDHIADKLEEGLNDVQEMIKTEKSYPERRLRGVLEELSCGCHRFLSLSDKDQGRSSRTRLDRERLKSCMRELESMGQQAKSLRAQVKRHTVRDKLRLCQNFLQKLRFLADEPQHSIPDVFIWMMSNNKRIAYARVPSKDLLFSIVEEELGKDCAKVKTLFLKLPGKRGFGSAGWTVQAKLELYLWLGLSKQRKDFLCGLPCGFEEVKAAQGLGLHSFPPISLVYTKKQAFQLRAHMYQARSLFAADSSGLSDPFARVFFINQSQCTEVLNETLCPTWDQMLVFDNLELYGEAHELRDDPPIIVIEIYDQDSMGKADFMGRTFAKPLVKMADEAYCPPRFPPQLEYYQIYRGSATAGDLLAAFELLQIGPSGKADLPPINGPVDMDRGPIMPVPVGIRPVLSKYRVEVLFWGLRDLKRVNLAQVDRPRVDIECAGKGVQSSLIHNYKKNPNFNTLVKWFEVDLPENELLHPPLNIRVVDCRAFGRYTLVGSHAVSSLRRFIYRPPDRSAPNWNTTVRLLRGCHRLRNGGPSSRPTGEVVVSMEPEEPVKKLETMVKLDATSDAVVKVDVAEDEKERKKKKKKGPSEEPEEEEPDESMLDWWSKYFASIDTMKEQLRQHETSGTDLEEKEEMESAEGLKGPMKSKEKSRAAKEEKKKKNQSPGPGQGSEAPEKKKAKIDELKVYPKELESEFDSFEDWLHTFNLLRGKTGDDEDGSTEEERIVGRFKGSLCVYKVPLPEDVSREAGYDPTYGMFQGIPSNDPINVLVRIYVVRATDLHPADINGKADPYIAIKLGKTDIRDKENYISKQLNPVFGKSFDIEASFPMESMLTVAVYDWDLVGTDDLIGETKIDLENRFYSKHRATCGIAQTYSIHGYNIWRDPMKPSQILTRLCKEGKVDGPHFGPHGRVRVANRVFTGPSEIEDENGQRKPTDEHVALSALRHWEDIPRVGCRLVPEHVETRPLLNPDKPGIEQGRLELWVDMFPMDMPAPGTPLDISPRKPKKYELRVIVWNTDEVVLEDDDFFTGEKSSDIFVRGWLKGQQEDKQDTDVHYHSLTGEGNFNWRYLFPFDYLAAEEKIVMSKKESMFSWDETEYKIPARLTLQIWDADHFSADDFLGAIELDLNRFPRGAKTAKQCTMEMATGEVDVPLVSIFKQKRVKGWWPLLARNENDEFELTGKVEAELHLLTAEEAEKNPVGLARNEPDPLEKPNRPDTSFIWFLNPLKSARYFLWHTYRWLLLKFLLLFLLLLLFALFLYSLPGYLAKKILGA

- PLA puncta fluorescence intensity per cell, % of rest, PMA 5 min [1]: 133%
- PLA puncta fluorescence intensity per cell, % of rest, PMA 15 min [1]: 149%
- PLA puncta fluorescence intensity per cell, % of rest, after 1-min stimulation [1]: 173%
Molecule: myosin VI (from UniProt Q64331 1-1262) (natural protein)

- PLA puncta fluorescence intensity per cell, % of rest, after 1-min stimulation [1]: 442%
Molecule: protein kinase C α (from UniProt P20444 1-672) (enzyme)

- PLA puncta fluorescence intensity per cell, % of rest, PMA 5 min [2]: 175%
- PLA puncta fluorescence intensity per cell, % of rest, PMA 15 min [2]: 161%
- PLA puncta fluorescence intensity per cell, % of rest, after 1-min stimulation [2]: 560%
B1: calbindin-D28k (natural protein)
chain: MAESHLQSSLITASQFFEIWLHFDADGSGYLEGKELQNLIQELLQARKKAGLELSPEMKSFVDQYGQRDDGKIGIVELAHVLPTEENFLLLFRCQQLKSCEEFMKTWRKYDTDHSGFIETEELKNFLKDLLEKANKTVDDTKLAEYTDLMLKLFDSNNDGKLELTEMARLLPVQENFLLKFQGIKMCGKEFNKAFELYDQDGNGYIDENELDALLKDLCEKNKQELDINNITTYKKNIMALSDGGKLYRTDLALILSAGDN
